Experimental data from publication PMC11091055 (Signal Transduction and Targeted Therapy, 2024).
Changes are numbered by the printed parent chain.

Columns and labels:
Experiment in all cases: SPR
Settings in all cases: both partners purified
[1] = target: T1, SARS-CoV-2 Omicron BA.1 S NTD, human Fc-tagged (SARS-CoV-2 Omicron BA.1, strain)
T1 construct: also called BA.1 NTD

[2] = target: T2, SARS-CoV-2 Omicron BA.2 S NTD, human Fc-tagged (SARS-CoV-2 Omicron BA.2, strain)
T2 construct: also called BA.2 NTD
T2 chain: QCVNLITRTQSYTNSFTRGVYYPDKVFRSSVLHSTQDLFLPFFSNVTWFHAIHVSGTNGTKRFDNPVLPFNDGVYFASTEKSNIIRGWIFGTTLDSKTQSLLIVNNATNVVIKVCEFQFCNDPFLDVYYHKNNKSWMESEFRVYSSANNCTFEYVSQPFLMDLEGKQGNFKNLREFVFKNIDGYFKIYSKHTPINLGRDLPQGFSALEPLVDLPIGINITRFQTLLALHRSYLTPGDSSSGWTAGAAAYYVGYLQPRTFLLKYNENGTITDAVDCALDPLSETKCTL

[3] = target: T3, SARS-CoV-2 Omicron BA.2.75 S NTD, human Fc-tagged (SARS-CoV-2 Omicron BA.2.75, strain)
T3 construct: also called BA.2.75 NTD
T3 chain: T2 chain with K131E, W136R, F141L, I194V, G241S

[4] = target: T4, SARS-CoV-2 Omicron BA.2.3.20 S NTD, human Fc-tagged (SARS-CoV-2 Omicron BA.2.3.20, strain)
T4 construct: also called BA.2.3.20 NTD
T4 chain: T2 chain

[5] = target: T5, SARS-CoV-2 Omicron BA.3 S NTD, human Fc-tagged (SARS-CoV-2 Omicron BA.3, strain)
T5 construct: also called BA.3 NTD

[6] = target: T6, SARS-CoV-2 Omicron BA.5 S NTD, human Fc-tagged (SARS-CoV-2 Omicron BA.5, strain)
T6 construct: also called BA.5 NTD
T6 chain: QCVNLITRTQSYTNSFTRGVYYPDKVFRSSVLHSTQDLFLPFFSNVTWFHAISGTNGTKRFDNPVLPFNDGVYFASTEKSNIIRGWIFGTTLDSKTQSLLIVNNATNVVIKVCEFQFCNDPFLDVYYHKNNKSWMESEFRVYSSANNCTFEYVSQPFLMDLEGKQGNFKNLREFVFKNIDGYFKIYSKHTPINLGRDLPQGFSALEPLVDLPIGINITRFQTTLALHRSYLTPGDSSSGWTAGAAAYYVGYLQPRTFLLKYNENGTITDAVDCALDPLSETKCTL

[7] = target: T7, SARS-CoV-2 Omicron XBB S NTD, human Fc-tagged (SARS-CoV-2 Omicron XBB, strain)
T7 construct: also called XBB NTD
T7 chain: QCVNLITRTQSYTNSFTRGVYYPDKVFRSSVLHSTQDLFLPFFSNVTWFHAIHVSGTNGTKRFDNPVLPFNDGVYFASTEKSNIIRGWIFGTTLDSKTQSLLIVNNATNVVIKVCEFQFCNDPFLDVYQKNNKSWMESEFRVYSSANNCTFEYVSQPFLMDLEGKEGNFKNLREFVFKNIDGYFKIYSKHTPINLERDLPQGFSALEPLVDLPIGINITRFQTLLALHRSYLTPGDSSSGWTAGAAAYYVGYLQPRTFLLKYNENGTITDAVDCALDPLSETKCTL

[8] = target: T8, SARS-CoV-2 Omicron XBB.1.5 S NTD, human Fc-tagged (SARS-CoV-2 Omicron XBB.1.5, strain)
T8 construct: also called XBB.1.5 NTD
T8 chain: T7 chain with V67A

[9] = target: T9, SARS-CoV-2 Omicron XBB.1.16 S NTD, human Fc-tagged (SARS-CoV-2 Omicron XBB.1.16, strain)
T9 construct: also called XBB.1.16 NTD
T9 chain: T7 chain with V67A, E163V, G235V

[10] = target: T10, SARS-CoV-2 Omicron EG.5.1 S NTD, human Fc-tagged (SARS-CoV-2 Omicron EG.5.1, strain)
T10 construct: also called EG.5.1 NTD
T10 chain: T7 chain with Q36H, V67A, G235V

[11] = target: T11, SARS-CoV-2 Omicron BA.2.86 S NTD, human Fc-tagged (SARS-CoV-2 Omicron BA.2.86, strain)
T11 construct: also called BA.2.86 NTD
T11 chain: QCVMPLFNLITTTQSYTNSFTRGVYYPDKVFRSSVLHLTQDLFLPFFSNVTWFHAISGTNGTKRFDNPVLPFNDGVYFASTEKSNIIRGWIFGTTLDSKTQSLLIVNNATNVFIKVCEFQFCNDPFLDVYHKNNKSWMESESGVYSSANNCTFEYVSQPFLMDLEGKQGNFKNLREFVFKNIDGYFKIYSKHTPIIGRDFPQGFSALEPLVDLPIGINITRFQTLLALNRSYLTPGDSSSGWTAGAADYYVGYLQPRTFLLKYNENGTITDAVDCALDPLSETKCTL

[12] = target: T12, SARS-CoV-2 Omicron JN.1 S NTD, human Fc-tagged (SARS-CoV-2 Omicron JN.1, strain)
T12 construct: also called JN.1 NTD
T12 chain: T11 chain

[13] = target: T13, SARS-CoV-2 Delta S NTD, human Fc-tagged (SARS-CoV-2 Delta (B.1.617.2), strain)
T13 construct: also called Delta NTD

[14] = target: T14, SARS-CoV-2 Lambda S NTD, human Fc-tagged (SARS-CoV-2 Lambda (C.37), strain)
T14 construct: also called Lambda NTD
T14 chain: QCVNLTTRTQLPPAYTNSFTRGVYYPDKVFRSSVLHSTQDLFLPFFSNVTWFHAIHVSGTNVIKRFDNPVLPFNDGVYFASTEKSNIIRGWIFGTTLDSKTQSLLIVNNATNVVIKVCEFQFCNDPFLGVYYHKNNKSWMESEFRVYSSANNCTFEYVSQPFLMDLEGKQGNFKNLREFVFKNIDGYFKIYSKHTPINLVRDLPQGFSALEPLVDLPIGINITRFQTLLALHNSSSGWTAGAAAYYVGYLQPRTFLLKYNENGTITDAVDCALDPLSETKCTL

Measured: Kd

B1: nanobody N235, His-tagged (VHH)
VHH: QVQLQESGGGLVQPGGSLRLSCAASGLIISRYDMSWYRQAPGKERELVATTPIPAARPQYADSVKGRFTISRDNAKNTVSLQMNSLKPEDTAVYYCNLGPESQDHNYNYWGQGTQVTVSS
< 0.2 nM: all assays above
